# Data: the nanobody polyreactivity screen of Harvey et al. (2022)
# Experiment: yeast display, Sf9 membrane polyspecificity reagent, FACS + sequencing; frameworks hold sequencing errors
# Outline: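 Genes from sorted yeast were amplified by colony PCR, read by MiSeq 2 × 250 sequencing and filtered on CDR length. These cells carried a synthetic nanobody library in Saccharomyces cerevisiae BJ5465 and were sorted by FACS into low and high (top ~1%) gates on anti-HA and streptavidin fluorescence. Polyreactivity is labelled according to the gate of origin.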
row,Sequence,polyreactivity (PSR sort gate)
1,QVQLVESGGGLVQAGGSLRLSCAASGRTFLVYAMGWYRQAPGKERELVAAISSDGSTNYADSVKGRFTISRDNAKNTVYLQMNSLKPEDTAVYYCARDGRTEHRGFDYWGQGTQVTVSS,low polyreactivity
2,QVQLVESGGGLVQAGGSLRLSCAASGRTFLYNTMGWYRQAPGKERELVAVISIDGGGTYADSVKGRFTISRDNAKNNVYLQMNSLKPEDTAVYDCAVDALCITYGYWGQGTQVTVSS,low polyreactivity
3,QVQLVESGGGLVQAGGSLRLSCAASGRTFLYYAMGWYRQAPGKERELVAAISSGGSTNYADSVKGRFTISRDNAKNTVYLQMNSLKPEDTAVYYCNADYTSRDTSDVIYEYDYWGQGTQVTVSS,low polyreactivity
4,QVQLVESGGGLVQAGGSLRLSCAASGRTFLYYAMGWYRQAPGKERELVAGITSGGSTNYADSVKGRFTITRDNAKNTVYLQMNSLKPEDTAVYYCAVDQGYSRTADVNYDYWGQGTQVTVSS,low polyreactivity
5,QVQLVESGGGLVQAGGSLRLSCAASGRTFLYYTMGWYRQAPGKERELVAAITSGTSTNYADSVKGRFTISRDNAKNTVYLQMNSLKPEDTAVYYCNKRAARSLNGYPLYGYYYWGQGTQVTVSS,low polyreactivity
6,QVQLVESGGGLVQAGGSLRLSCAASGRTFNGNTMGWYRQAPGKERELVAAISRRGGSTYYADSVKGRFTISRDTAKNTVYLQMNSLKPEVTAVYYCATHSTFGYDYWGQGTQVTVSS,high polyreactivity
7,QVQLVESGGGLVQAGGSLRLSCAASGRTFNGYAMGWYRQAPGKERELVASISRDGSTNYADSVKGRFTISRDNAKNTVYLQMNSLKPEDTAVYYCAADIWYYRYPIYYYSYDYWGQGTQVTVSS,low polyreactivity
8,QVQLVESGGGLVQAGGSLRLSCAASGRTFNHNPMRWYRQAPGKERELVAAISYSGGGTYYADSVKGRFTFSRDNAKNSVYLQMNSLKPEDTAVYFCAAYPVRGAYGYWGQGTQVTVSS,low polyreactivity
9,QVQLVESGGGLVQAGGSLRLSCAASGRTFNINAMGWYRPAPGKERELVASISWGGGRTYSADSVKGRFTISRDNAKNTVYLQKNSLKPEDPAVYYCAADYAGNKGVPYYYKYNYWGQGTQVTVSS,high polyreactivity
10,QVQLVESGGGLVQAGGSLRLSCAASGRTFNIYAMGWYRQAPGKERELVAAITFTGGNTYYADSVKGRFTISRDNAKNTVYLQMNSLKPEDTAVYYCNKRLKWRSYDYWGQGTQVTVSS,low polyreactivity
11,QVQLVESGGGLVQAGGSLRLSCAASGRTFNRNAMGWYRQAPRKERELVAAISRGGTTSYADSVKGRFTISRDNAKNTVYLQMNSLQPEDTAVYYCAAEPYIQWVYYRGNGRRYGYWGQGTQVTVSS,high polyreactivity
12,QVQLVESGGGLVQAGGSLRLSCAASGRTFNRYAMGWYRQAPGKEREFVASITRSGGSTYYADSVKGRFTISRDNAKNTVYLQMNSLKPEDTAVYYCAAQLRYKYDYWGQGTQVTVSS,high polyreactivity
13,QVQLVESGGGLVQAGGSLRLSCAASGRTFNSHVMRWYRQAPGKERELVAAISSRGGGTYYADSVKGRFTISRDNAKNTVYLQMNSLNPEDTAVYYCITVVSRSYRDGPPDPYDSWGQGTQVTVSS,high polyreactivity
14,QVQLVESGGGLVQAGGSLRLSCAASGRTFNSYAMGWYRQAPGKERELVASISSGGSTYYADSVKGRFTLSRDNAKHTDYLQMNSLKPEDTAVYYCAAKSVAYYSYFRRDYWGQGTQVTVSS,low polyreactivity
15,QVQLVESGGGLVQAGGSLRLSCAASGRTFNVYAMGWYRQAPGKETELVAVITNGGSTNYADSVKGRFTISRDNAKNTVYFQMNSLKPEDTAVYYCAAREDLYLYYNGQRVQYDYCGQGTQVTVSS,low polyreactivity
16,QVQLVESGGGLVQAGGSLRLSCAASGRTFNWNAMGWYRQAPGKESEFVADISGRGGSTYYADSVKGRFTISRDNAKNTVYLQMNSLKPEETAVYYCAARPRFLRASVEFDYWGQGTQVTVSS,high polyreactivity
17,QVQLVESGGGLVQAGGSLRLSCAASGRTFNWYAMGWYRQTPGKERELVAGITRIGTTTYYADSVKGRFTISRDNAKITVYLQMNSLKPEDTAVYYCASDQRKLGADFDSWGQGTQVTVSS,high polyreactivity
18,QVQLVESGGGLVQAGGSLRLSCAASGRTFNYYAMGWYRQAPGKERELVAAISWGGGRTYYADSVKGRFTISRDNAKNTVYFQMNSLKPEDTAVFDCAARYLQLGLAYYYWGQGTQVTVSS,high polyreactivity
19,QVQLVESGGGLVQAGGSLRLSCAASGRTFNYYAMGWYRQAPGKERELVAAISWSGTPTYYADSVKGRFTISRDNAKNTVYLQMNSLKPEDTAVYYCAAYLVSYPRGNYIRYDYWGQGTQVTVSS,low polyreactivity
20,QVQLVESGGGLVQAGGSLRLSCAASGRTFPDNAMGWYRQEPGKERELVAVINWGGTSTYYADSVKGRFTISRDNAKNTFYLQMNSLKPEDTAVYYCAARARYPRVGYNYWGQGTQVTVSS,high polyreactivity
21,QVQLVESGGGLVQAGGSLRLSCAASGRTFPFYAMGWYRQPPAKERELVAVITWRGSNTYADSVKGRFTISRDNAKNTVYLQMNSLKPEVTAVYYCAADAWRSYGYRAYDYWGQVTQVTVSS,low polyreactivity
22,QVQLVESGGGLVQAGGSLRLSCAASGRTFPGNAMGWYRQAPGKERELVAAISSRGGSTYYADSVKGRFTISRDNAKYTVYFQMNSLKPEDTALYYCARRYLPYGGYYYWGQGTQVTVSS,high polyreactivity

row,Sequence,polyreactivity (PSR sort gate)
1,QVQLVESGGGLVQAGGSLRLSCAASGRTFPGNAMGWYRQAPGKERELVATISSGGTTNYADSVKGRFTISRDNAKTTVYLQMNSLKPEDTAVYYCATDTYHHKADYEYWGKGTQVTVSS,low polyreactivity
2,QVQLVESGGGLVQAGGSLRLSCAASGRTFPGNAMGWYRQAPGKERELVATISSGGTTYYADSVKGRFTISRDNAKNTVYLQMNSLKPEDTAVYYCATDTYHHKADYEYWGQGTQVSVSS,low polyreactivity
3,QVQLVESGGGLVQAGGSLRLSCAASGRTFPGYAMGWYRQAPGKERELVAAISSSGGSTYYADSVKGRFTISRDNAKNTVYLQMNSLKPEDTAVYYCNAAYRGRLYSWRYGYDYWGQGTQVTVSS,high polyreactivity
4,QVQLVESGGGLVQAGGSLRLSCAASGRTFPINTMGWYRQAPGKEREFVAAITLGGRTYYADSVKGRFTISRDNAKNTVYLQMNSLKPEDTAVYYCNARTYVRRPLGYWGQGTQVTVSS,high polyreactivity
5,QVQLVESGGGLVQAGGSLRLSCAASGRTFPKYAMGWYRQATGKERELVAAISSSGGNTYYADSVKGRFTISRDKAKTTVYLQMNSLTPEDTAVYYCAARLPRGAYYYWGQGTQLTVSS,high polyreactivity
6,QVQLVESGGGLVQAGGSLRLSCAASGRTFPNVMGWYRQAPGKERELVAAISSSVGSTSYADSVKGRFTISRDNAKNTVYLQMNSLKPEDTAVYYCAARYYYRDWVGIISTYYYWGQGTQVTVSS,high polyreactivity
7,QVQLVESGGGLVQAGGSLRLSCAASGRTFPPYAMGWYRQAPGKERELVAAISRRAGTTYYADSVKGRFTISRDNAKNTVYLQMNSLKPEDTAVYYCAALTESSSYGYWGQGTQVTVSS,low polyreactivity
8,QVQLVESGGGLVQAGGSLRLSCAASGRTFPPYAMGWYRQAPGKERELVAAISSDGSTYADSVKGRFTISRDNAKNTVYLQMNSLKPEDTAVYYCAVDYTYSYRKHFGHILYSWGQGTQVTVSS,low polyreactivity
9,QVQLVESGGGLVQAGGSLRLSCAASGRTFPRYAMGWYRQAPGKERELVAAISGTGGSTYYADSVKGRFTISRDNAKNTVYLQMNSLKPEDTAVYYCAAAFRDGFTRRYGYWGQGTQVTVSS,high polyreactivity
10,QVQLVESGGGLVQAGGSLRLSCAASGRTFPRYAMGWYRQAPGKERELVAAISVRAGITYYADSVKGRFTISRDNAKNTVYLQMNSLKPEDTAVYYCAKSVRYPASDYWGQGTQVTVSS,low polyreactivity
11,QVQLVESGGGLVQAGGSLRLSCAASGRTFPSYAMGWYRQAAGKERELVAAITVSGGNTYYADSVKGRFTISRDNAKNTVYLQMNSLKPEDTAVYYCNTASYVSWYVHYYYWGQGTQVTVSS,low polyreactivity
12,QVQLVESGGGLVQAGGSLRLSCAASGRTFPSYVMGWYRQAPGKERELVAAINNGVSTNYADSVKGRYTISRDNAKNTVYLQMNSLNPEDTADYYCAAEVVAQMNYCGQGTQVTVSS,low polyreactivity
13,QVQLVESGGGLVQAGGSLRLSCAASGRTFPTNMGWYRQAPGKERELVATITGGGGSTIYADSVKGRFTISRDNAKNTVYLQMNSLKPEDTAVYYCAKTLSPEGVPYDYWGQGTQVTVSS,low polyreactivity
14,QVQLVESGGGLVQAGGSLRLSCAASGRTFPTYAMGWYRQAPGKERELVATISYNGGRTYYADSVKGRFTISRDNAKNTVYLQMNSLKPEDTAVYDCNAVVYVVGDFDYWGQGTQVTVSS,high polyreactivity
15,QVQLVESGGGLVQAGGSLRLSCAASGRTFPVNGMGWYRQAPGKERELVAAITGGGSTNYADSVKGRFTISRDNAKNTVYLQMNSLKPEDTAVYYCAAGSYSRYLYSLYFDFDYWGQGTQVTVSS,low polyreactivity
16,QVQLVESGGGLVQAGGSLRLSCAASGRTFPVYAMGWYRQAPGKEREFVAAISYRTGSTYYADSVKGRFTISRDHAKNTVYLQMNSLKPEDTAVYYCAARVSWYYTFYSWGQGTQVTVSS,high polyreactivity
17,QVQLVESGGGLVQAGGSLRLSCAASGRTFPYNAMGWYRQAPGKERELVAAITSSGSSTYYADSVKGRFTISRDNAKNTVYLQMNSLKPEDTAVYYCAADSYLIVGSSLVWQGYYYWGQGTQVTVSS,low polyreactivity
18,QVQLVESGGGLVQAGGSLRLSCAASGRTFPYNAMGWYRQAPGNERELVAGISSGGTTTYADSVKGRFTISRDNAKNTVYLQMNSLKPEVTAVYYCAATVIIFDHSRPGWDDYDYWGQGTQVTVSS,low polyreactivity
19,QVQLVESGGGLVQAGGSLRLSCAASGRTFPYNFMGWYRQAPGKERELVAGITGSGDSTFYADSVKGRFTISRDNAKNTVYLQMNSLKPEDTAVYYCAARYRTLNDGYNRNYWGQGTQVTVSS,low polyreactivity
20,QVQLVESGGGLVQAGGSLRLSCAASGRTFPYYAMGWYRQAPGKERELVAAISRRGASTYYADSVKGRFTISRDNAKNTVYLQMNSLKPEDTAVYYCNAVYRGYYSGELDYWGQGTQVTVSS,high polyreactivity
21,QVQLVESGGGLVQAGGSLRLSCAASGRTFPYYAMGWYRQAPGKERELVAVISSADSTNYADSVKGRFTISRDNAKNTVYLQMNSLKPEDTAVYYCAADAVYYGDDYWGQCTQVTVSS,low polyreactivity
